Test results published in patent publication US20040072285A1 (OREGON HEALTH AND SCIENCE UNIVERSITY, published 2004).

B1: P4.33 protein (IGFBP-3 receptor, IGFBP-3R), untagged / endogenous (receptor)
chain: SFLLTHRTGLRSPDIPQDWVSFLRSFGQLTLCPRNGTVTGKWRGSHVVGLLTTLNFGDGPDRNKTRTFQATVLGSQMGLKGSSAGQLVLITARVTTERTAGTCLYFSAVPGILPSSQPPISCSEEGAGNATLSPRMGEECVSVWSHEGLVLTKLLTSEELALCGSRLLVLGSFLLLFCGLLCCVTAMCFHPRRESHWSRTRL
B2: IGFBP-3 fragment comprising amino acids 98-264 (other, UniProt P17936 125-291, looked up)
chain: AYLLPAPPAPGNASESEEDRSAGSVESPSVSSTHRVSDPKFHPLHSKIIIIKKGHAKDSQRYKVDYESQSTDTQNFSSESKRETEYGPCRREMEDTLNHLKFLNVLSPRGVHIPNCDKKGFYKKKQCRPSKGRKRGFCWCVDKYGQPLPGYTTKGKEDVHCYSMQSK
notes: range 98-264; also called IGFBP-3 fragment 98-264
B3: IGFBP-3 fragment comprising amino acids 88-148 (peptide, UniProt P17936 115-175, looked up)
chain: VNASAVSRLRAYLLPAPPAPGNASESEEDRSAGSVESPSVSSTHRVSDPKFHPLHSKIIII
notes: range 88-148; also called IGFBP-3 fragment 88-148

Experiments:
[1] = target: T1, Insulin-like Growth Factor Binding Protein-3 (IGFBP-3) (UniProt P17936 28-291, limits assumed, 125I label or OregonGreen label in some assays (sites not given)); assay: cell-surface binding with unlabelled IGFBP-3 as competitor, Hs578T cells transfected with un-tagged clone 4.33
T1 construct: mature; Also used for IGFBP-3 expressed by the cells themselves (Hs578T, PC-3, MCF-7:BP-3 lines) in the functional rows; also called unlabelled IGFBP-3
Experimental: Cell surface binding assay. Cells were seeded into 24-well plates and grown to 60-70% confluency, then transfected according to manufacturer instructions in serum-containing medium for 36 hours. Sf9 cells were seeded into 24-well plates and infected with virus harboring the 4-33^F cDNA for 48 hours. Cells were washed in cold PBS, then incubated for 3 hours at 12° C. in binding buffer (1× Hank's buffered salt solution, 1 mM CaCl₂, 1 mM MgCl₂, 0.5% BSA) containing [¹²⁵I]-IGFBP-3 (Diagnostic Systems Laboratories) at 50,000 cpm per well in triplicate, with or without unlabelled IGFBP-3 as indicated in the text below. The binding solution was then aspirated and the cells washed in cold binding buffer (without BSA), lysed in 0.25 N NaOH, and the radiolabelled IGFBP-3 present in each lysate was detected in a gamma counter.
Cells were then washed and exposed to [¹²⁵I]-labelled IGFBP-3 plus and minus increasing amounts of unlabelled IGFBP-3 as indicated for 3 hours at 12° C.

[2] = target: B1; assay: cell-surface competition assay; competitor of full-length IGFBP-3

| binding result [1] | binding result [2] | Binder |
| --- | --- | --- |
| binds | – | B1 |
| – | binds | B2 |
| – | binds | B3 |
